The nature of data set [1]: Infusion of peroxidase tracer protein into the cistern magna, distribution visualized by DAB reaction. The following applies: infused into cistern magna of mouse, formalin fixing after 30 minutes; FIG. 12. It is filed as in vivo. The text has this: In the case of the microperoxidase being not able to penetrate, a barrier corresponding to the blood brain barrier is judged to be present.
It has already discussed that the most of the inhibitory neuron progenitors were distributed to the proximity to the brain surface or the subventricular zone. In order to establish a technique for delivering Activin A to the proximity to the brain surface or the subventricular zone, a protein which can readily be detected was employed instead of Activin A itself in a monitoring experiment. The protein employed was a microperoxidase which was a peptide obtained by enzymatic degradation of cytochrome C and purification of a heme-containing moiety. A caudal part of a mouse cerebellum has a large subarachnoid cavity referred to as the cistern magna, into which the microperoxidase was infused, and after 30 minutes the formalin fixing was conducted and the enzyme distribution was visualized by a color development via DAB reaction (peroxidase reaction). It is defined that when the microperoxidase cannot permeate then a barrier corresponding to the blood brain barrier exists. […] It means that there was no barrier corresponding to BBB between the subarachnoid cavity and the brain parenchyma (the boundary is the pia matter) or between the ventricle and the brain parenchyma (the boundary is a ventricular zone). […]

The test system of data set [2] is inhibitory neuron progenitors (GFP positive cells from GAD67-GFP P0 mouse cerebral cortex). Nature of the data set: BrdU uptake into DNA of sorted GFP positive cells cultured in neural stem cell culture medium with or without Activin A. It is filed as cell-based. The conditions noted are these: neural stem cell culture medium with (M+A) or without (M) Activin A at 20 ng/ml; FIG. 10. The protocol:
The cerebral cortex of a GAD67-GFP P0 mouse was taken out, treated with a protease (trypsin) to disperse the cells, which were subjected to a cell sorter to obtain GFP positive cells. A neural stem cell culture medium (Neurobasal medium +5% B27 supplement, 20 ng/ml bFGF, 20 ng/ml EGF) was combined with a E18 mouse fetal brain tissue and cultured overnight for conditioning, thereafter the cells were removed and then 5 μg/ml of BrdU was added and the GFP positive cells taken out by the cell sorter were cultured for 2 to 7 days and then fixed. As a result, a part of the GFP positive GABAergic neuron progenitors was confirmed to uptake BrdU in a conditioned neural stem cell culture medium to undergo a cell division (FIG. 9). When the GFP positive cells were cultured in a neural stem cell culture medium which had not been conditioned with the fetal brain tissue, the image as of FIG. 9 was not obtained.
The proliferation may be successful in the neural stem cell culture medium supplemented with essential proliferation factors, thus establishing an essential proliferation factor detection system.

The subject of data set [3] is inhibitory neuron progenitors in the brain. The experiment in a line: In vivo infusion of Activin A solution into the brain of juvenile GAD67-GFP mouse, EdU labelling, histological observation. The conditions noted are these: P3 GAD67-GFP mouse; 1 μl of 1 μg/ml Activin A solution, one side; EdU i.p. after 30 minutes; examined after 1 week; FIG. 11. Here is the method:
Thereafter, the animal was maintained for 1 week, anesthetized, fixed, and examined histologically.
Also in order to verify the in vivo effect of Activin A, an Activin A solution was injected directly into the brain of a 3-day old (P3) juvenile mouse. Thirty minutes after this addition, EdU was injected intraperitoneally. […] Then the subsequent issue is a method for delivering Activin A to the inhibitory neuron progenitors inside the brain. Such a method is preferably a method avoiding any damage to the brain, such as penetration of an injection needle.

microperoxidase: in data set [1], the “distribution from the cistern via the ventricles to the lateral ventricle and into the brain parenchyma” value is “migrated from the surface of the lateral ventricle to the brain parenchyma”; the “permeation from the subarachnoid cavity through the pia matter into the brain parenchyma” value is on record as “permeated from the pia matter into the brain parenchyma”.

B1: Activin A (protein, UniProt P08476 311-426, looked up)
Inhibin beta A chain: GLECDGKVNICCKKQFFVSFKDIGWNDWIIAPSGYHANYCEGECPSHIAGTSGSSLSFHSTVINHYRMRGHSPFANLKSCCVPTKLRPMSMLYYDDGQNIIKKDIQNMIVEECGCS
modifications: Inhibin beta A chain
Turning to B1, the “uptake of BrdU into the DNA (increase in the DNA amount associated with cell division)” value in data set [2] is “increase in the DNA amount associated with the cell division was evident”. For the same molecule, in data set [3], the “EdU positive cells (considered pia progenitors) in the pia matter on the infusion side” value is reported as “a large number” and the “number of GFP/EdU double-stained inhibitory neurons in the infused hemisphere compared with the opposite hemisphere” value is “significantly larger number”.

For the origin of these results see patent US20130236430A1, “PROLIFERATION, SEPARATION AND TRANSPLANTATION OF INHIBITORY NEURON PROGENITORS AND PROLIFERATION PROMOTING SUBSTANCES FOR THE PROGENITORS” (priority 2010, published 2013).
